Reference: the array DNA melting data of Ke et al.

experiment: melting temperature; melt of duplexes; details: sodium 0.0675 M; strand 1 µM

Substance | Tm
CGACGTGCAATATGTGCTG+CAGCACATCGCGCACGTCG ((((((((...((((((((+))))))))...)))))))) | 47.4 °C
CGACGTGCAGAATGTGCTG+CAGCACATAGGGCACGTCG ((((((((...((((((((+))))))))...)))))))) | 49.2 °C
CGACGTGCAGTATGTGCTG+CAGCACATCTCGCACGTCG ((((((((...((((((((+))))))))...)))))))) | 50.1 °C
CGACGTGCCGAATGTGCTG+CAGCACATGCGGCACGTCG ((((((((((.((((((((+)))))))).)))))))))) | 61.6 °C
CGACGTGCTGAATGTGCTG+CAGCACATAAAGCACGTCG (((((((((..((((((((+))))))))..))))))))) | 55.5 °C
CGACGTGCCCTATGTGCTG+CAGCACATTAAGCACGTCG ((((((((...((((((((+))))))))...)))))))) | 48.7 °C
CGACGTGCGTGATGTGCTG+CAGCACATATCGCACGTCG (((((((((..((((((((+))))))))..))))))))) | 54.6 °C
CGACGTGCGTAATGTGCTG+CAGCACATAGAGCACGTCG ((((((((...((((((((+))))))))...)))))))) | 54.4 °C
CGACGTGCTTCATGTGCTG+CAGCACATGGCGCACGTCG ((((((((..(((((((((+)))))))))..)))))))) | 53 °C
CGACGTGCTCGATGTGCTG+CAGCACATATGGCACGTCG ((((((((...((((((((+))))))))...)))))))) | 50.5 °C
CGACGTGCTTTATGTGCTG+CAGCACATTACGCACGTCG ((((((((.(.((((((((+)))))))).).)))))))) | 48.7 °C
CGACGTGCTCCATGTGCTG+CAGCACATTATGCACGTCG ((((((((...((((((((+))))))))...)))))))) | 47.6 °C
CGACGTGCGAGATGTGCTG+CAGCACATCAAGCACGTCG ((((((((..(((((((((+)))))))))..)))))))) | 58.6 °C
CGACGTGCCACATGTGCTG+CAGCACATCTGGCACGTCG ((((((((((.((((((((+)))))))).)))))))))) | 55.2 °C
CGACGTGCATCATGTGCTG+CAGCACATGGAGCACGTCG ((((((((..(((((((((+)))))))))..)))))))) | 55.5 °C
CGACGTGCGGGATGTGCTG+CAGCACATGCCGCACGTCG ((((((((((.((((((((+)))))))).)))))))))) | 63.7 °C
CGACGTGCAATATGTGCTG+CAGCACATTTAGCACGTCG ((((((((.(.((((((((+)))))))).).)))))))) | 50.8 °C
CGACGTGCCCTATGTGCTG+CAGCACATATGGCACGTCG (((((((((.(((((((((+))))))))).))))))))) | 55.8 °C
CGACGTGCGACATGTGCTG+CAGCACATTCTGCACGTCG ((((((((...((((((((+))))))))...)))))))) | 51.3 °C
CGACGTGCTTCATGTGCTG+CAGCACATCTGGCACGTCG ((((((((...((((((((+))))))))...)))))))) | 48.9 °C
CGACGTGCGCCATGTGCTG+CAGCACATGACGCACGTCG (((((((((.(((((((((+))))))))).))))))))) | 59.3 °C
CGACGTGCCGGATGTGCTG+CAGCACATCCGGCACGTCG (((((((((((((((((((+))))))))))))))))))) | 68.2 °C
CGACGTGCACTATGTGCTG+CAGCACATGGTGCACGTCG ((((((((((.((((((((+)))))))).)))))))))) | 56.6 °C
CGACGTGCGGGATGTGCTG+CAGCACATATAGCACGTCG ((((((((...((((((((+))))))))...)))))))) | 52.8 °C

Substance | Tm
CGACGTGCCAGATGTGCTG+CAGCACATTTGGCACGTCG ((((((((((.((((((((+)))))))).)))))))))) | 59.3 °C
CGACGTGCACGATGTGCTG+CAGCACATTCTGCACGTCG (((((((((..((((((((+))))))))..))))))))) | 49.2 °C
CGACGTGCGACATGTGCTG+CAGCACATCAAGCACGTCG ((((((((...((((((((+))))))))...)))))))) | 52.6 °C
CGACGTGCTGAATGTGCTG+CAGCACATCGGGCACGTCG ((((((((...((((((((+))))))))...)))))))) | 50.9 °C
CGACGTGCCCTATGTGCTG+CAGCACATATTGCACGTCG ((((((((..(((((((((+)))))))))..)))))))) | 48.9 °C
CGACGTGCTCAATGTGCTG+CAGCACATACAGCACGTCG (((((((((..((((((((+))))))))..))))))))) | 50.7 °C
CGACGTGCAAAATGTGCTG+CAGCACATGTCGCACGTCG ((((((((.(.((((((((+)))))))).).)))))))) | 53.3 °C
CGACGTGCGCAATGTGCTG+CAGCACATCACGCACGTCG (((((((((..((((((((+))))))))..))))))))) | 54 °C
CGACGTGCGGCATGTGCTG+CAGCACATCTCGCACGTCG (((((((((..((((((((+))))))))..))))))))) | 53.4 °C
CGACGTGCACCATGTGCTG+CAGCACATTCAGCACGTCG ((((((((...((((((((+))))))))...)))))))) | 42.6 °C
CGACGTGCCTGATGTGCTG+CAGCACATTATGCACGTCG ((((((((.(.((((((((+)))))))).).)))))))) | 50.2 °C
CGACGTGCAGGATGTGCTG+CAGCACATGGAGCACGTCG ((((((((...((((((((+))))))))...)))))))) | 50.3 °C
CGACGTGCTTTATGTGCTG+CAGCACATGCTGCACGTCG ((((((((...((((((((+))))))))...)))))))) | 46.2 °C
CGACGTGCCTAATGTGCTG+CAGCACATTGTGCACGTCG ((((((((..(((((((((+)))))))))..)))))))) | 49 °C
CGACGTGCAACATGTGCTG+CAGCACATGTCGCACGTCG ((((((((.((((((((((+)))))))))).)))))))) | 57.8 °C
CGACGTGCTGGATGTGCTG+CAGCACATTGCGCACGTCG ((((((((...((((((((+))))))))...)))))))) | 49.5 °C
CGACGTGCGGTATGTGCTG+CAGCACATTGCGCACGTCG (((((((((..((((((((+))))))))..))))))))) | 55.4 °C
CGACGTGCACTATGTGCTG+CAGCACATGTCGCACGTCG ((((((((...((((((((+))))))))...)))))))) | 46.4 °C
CGACGTGCTTTATGTGCTG+CAGCACATCGAGCACGTCG (((((((((..((((((((+))))))))..))))))))) | 51.3 °C
CGACGTGCATCATGTGCTG+CAGCACATCGTGCACGTCG (((((((((..((((((((+))))))))..))))))))) | 47.2 °C
CGACGTGCCGTATGTGCTG+CAGCACATGGGGCACGTCG (((((((((..((((((((+))))))))..))))))))) | 57.1 °C
CGACGTGCTAGATGTGCTG+CAGCACATCCGGCACGTCG ((((((((..(((((((((+)))))))))..)))))))) | 55.4 °C
CGACGTGCACCATGTGCTG+CAGCACATGTTGCACGTCG (((((((((.(((((((((+))))))))).))))))))) | 55 °C
CGACGTGCGTGATGTGCTG+CAGCACATCGCGCACGTCG (((((((((.(((((((((+))))))))).))))))))) | 63.6 °C

Substance | Tm
CGACGTGCCGTATGTGCTG+CAGCACATCTCGCACGTCG ((((((((...((((((((+))))))))...)))))))) | 48.5 °C
CGACGTGCTGAATGTGCTG+CAGCACATCCAGCACGTCG ((((((((((.((((((((+)))))))).)))))))))) | 57.6 °C
CGACGTGCCCGATGTGCTG+CAGCACATATGGCACGTCG (((((((((..((((((((+))))))))..))))))))) | 54 °C
CGACGTGCGATATGTGCTG+CAGCACATGATGCACGTCG ((((((((...((((((((+))))))))...)))))))) | 53.8 °C
CGACGTGCAGGATGTGCTG+CAGCACATGCAGCACGTCG ((((((((.(.((((((((+)))))))).).)))))))) | 55 °C
CGACGTGCATCATGTGCTG+CAGCACATAGCGCACGTCG ((((((((...((((((((+))))))))...)))))))) | 48.2 °C
CGACGTGCTTAATGTGCTG+CAGCACATATAGCACGTCG (((((((((..((((((((+))))))))..))))))))) | 54.2 °C
CGACGTGCGCGATGTGCTG+CAGCACATTCCGCACGTCG (((((((((..((((((((+))))))))..))))))))) | 54.9 °C
CGACGTGCTGAATGTGCTG+CAGCACATGCAGCACGTCG ((((((((((.((((((((+)))))))).)))))))))) | 59.7 °C
CGACGTGCTCTATGTGCTG+CAGCACATAATGCACGTCG ((((((((..(((((((((+)))))))))..)))))))) | 50.4 °C
CGACGTGCTAAATGTGCTG+CAGCACATAACGCACGTCG ((((((((...((((((((+))))))))...)))))))) | 50 °C
CGACGTGCGCCATGTGCTG+CAGCACATAAGGCACGTCG ((((((((...((((((((+))))))))...)))))))) | 48.6 °C
CGACGTGCGCAATGTGCTG+CAGCACATTTAGCACGTCG ((((((((..(((((((((+)))))))))..)))))))) | 53 °C
CGACGTGCGCCATGTGCTG+CAGCACATTTGGCACGTCG ((((((((...((((((((+))))))))...)))))))) | 47.4 °C
CGACGTGCTCAATGTGCTG+CAGCACATCTAGCACGTCG (((((((((..((((((((+))))))))..))))))))) | 51 °C
CGACGTGCGTGATGTGCTG+CAGCACATAGAGCACGTCG ((((((((...((((((((+))))))))...)))))))) | 53.1 °C
CGACGTGCGACATGTGCTG+CAGCACATAGAGCACGTCG ((((((((...((((((((+))))))))...)))))))) | 56.3 °C
CGACGTGCCGTATGTGCTG+CAGCACATTTGGCACGTCG (((((((((..((((((((+))))))))..))))))))) | 55.2 °C
CGACGTGCTAAATGTGCTG+CAGCACATGCAGCACGTCG (((((((((..((((((((+))))))))..))))))))) | 55.2 °C
CGACGTGCCATATGTGCTG+CAGCACATGAGGCACGTCG (((((((((..((((((((+))))))))..))))))))) | 56.2 °C
CGACGTGCTAGATGTGCTG+CAGCACATAGTGCACGTCG ((((((((...((((((((+))))))))...)))))))) | 46.1 °C
CGACGTGCATGATGTGCTG+CAGCACATATTGCACGTCG (((((((((..((((((((+))))))))..))))))))) | 52.3 °C
CGACGTGCTGCATGTGCTG+CAGCACATGGGGCACGTCG ((((((((..(((((((((+)))))))))..)))))))) | 57 °C
CGACGTGCTCGATGTGCTG+CAGCACATCTGGCACGTCG ((((((((..(((((((((+)))))))))..)))))))) | 54.3 °C
